Target: T1, Tie1-Fc immobilized on a CM5 chip (species not stated)
T1 construct: also called immobilized Tie1-Fc
Test: SPR, Tie1-Fc immobilized to the CM5 sensor chip, bivalent anti-Tie1 as analyte
Procedure: Affinity analysis of the Fab and IgGs was performed using surface plasmon resonance using a BIAcore 3000 instrument. For this analysis both dimeric (Tie1-Fc fusion protein) and monomeric (Tie1-HIS) versions of the extracellular domain of the Tie1 were used. The sensor chips used in these experiments were CM5 (dextran-coated) which allow immobilization of proteins to the chip via standard amine coupling chemistries. The concentration of flowed antibody was determined using a surface plasmon resonance based method. Using a high-density protein A sensor chip, under mass transport limited conditions, the response signal is dependent only on the concentration of the antibody in the sample under test. This approach allows a precise determination of the antibody concentration, a parameter important for accurate determination of the KD.

Kd: 0.2 nM
fold increase in affinity (against the anti-Tie1 Fab): > 10 fold
B1: DX-2220 (full length IgG1, germlined human anti-Tie1 antibody E3b) (antibody, V domains shown)
VH: EVQLLESGGGLVQPGGSLRLSCAASGFTFSMYGMVWVRQAPGKGLEWVSVISPSGGNTGYADSVKGRFTISRDNSKNTLYLQMNSLRAEDTAVYYCARAPRGYSYGYYYWGQGTLVTVSS
VL: DIQMTQSPSSLSASVGDRVTITCRASQGIGHYLAWYQQKPGKVPKLLIYTASTLQSGVPSRFSGSGSGTDFTLTISSLQPEDVATYYCQQFNSYPHTFGQGTRLEIKR
notes: Heavy and light chain frameworks germlined; also called E3b-IgG1; germlined E3b IgG1

— patent publication US20100196361A1 (published 2010)
